Assay: yeast display, Sf9 membrane polyspecificity reagent, FACS + sequencing; frameworks hold sequencing errors
In short: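 A nanobody's polyreactivity label depends on the gate it was sorted from. Yeast display cells were stained with 10% biotinylated, detergent-solubilized Sf9 membrane reagent for 1 hour at 4 °C, enriched on streptavidin microbeads and sorted by FACS. The low and high (top ~1%) gates were set on anti-HA fluorescence for expression and streptavidin fluorescence for reagent binding.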
With “QVQLVESGGGLVQAGGSLRLSCAASGSIFYRNVMGWYRQAPGKERELVAAISQRGGSTYYADSVKGRFTISRDNAKNTVYLQMNSLKPEDTAVYYCIAASRGAGTSIWSWYDHWGQGTQVTVSS” the “polyreactivity (PSR sort gate)” value was “low polyreactivity”.
With “QVQLVESGGGLVQAGGSLRLSCAASGSIFYRNVMGWYRQAPGKERELVAVITGSGDSTFYADSVKGRFTISRDNAKNTVYLQMNSLKPEDTAVYYCNARQVSGGYYYWGQGTQVTVSW” the “polyreactivity (PSR sort gate)” value was “low polyreactivity”.
In the case of “QVQLVESGGGLVQAGGSLRLSCAASGSIFYRYAMGWYRQAPGKERELVAAITSTGSRTFYADSVKVRFTISRDNAKNTVYLQMNSLKPEDTAVYYCAADARYNGYHGVDYWGQGTLVTVSS”, the “polyreactivity (PSR sort gate)” value is reported as “high polyreactivity”.
In the case of “QVQLVESGGGLVQAGGSLRLSCAASGSIFYRYAMGWYRQAPGKESELVAAITQSTDSTYYADSVKGRFTISRDNAKNTVYLQMNSLKPEDTAVYYCAAYLVYYRPYAYGYWGQGTQVTVSS”, the “polyreactivity (PSR sort gate)” value is reported as “low polyreactivity”.
For “QVQLVESGGGLVQAGGSLRLSCAASGSIFYRYTMGWYRQAPGKERELVAAISSRGGSTYYADSVKGRFTISRDNAKNTVYLQMNSLKPEDTAVYYCAARFSYWAPSKGYGYWGQGTQVTVSS”, the “polyreactivity (PSR sort gate)” value was “high polyreactivity”.
For “QVQLVESGGGLVQAGGSLRLSCAASGSIFYRYTMGWYRQAPGKERELVAVISRRGGSTYYADSVKGRFTISRDNAKNTVYLQMNSLKPEDTAVYYCAVRQYRTSVRQGNTLWDDYWGQGTQVTVSS”, the “polyreactivity (PSR sort gate)” value was “high polyreactivity”.
In the case of “QVQLVESGGGLVQAGGSLRLSCAASGSIFYSNAMGWYRQAPGKERELVAAIHWSGGSTYYADSVKGRFTISRDNAKNTFYLLMNSLKPEDTAVYYCAADYGWGPIYDYWGQGTQVNVSS”, the “polyreactivity (PSR sort gate)” value is reported as “low polyreactivity”.
For “QVQLVESGGGLVQAGGSLRLSCAASGSIFYSNAMGWYRQAPGKERELVAAINWSGVRTYYADSVKGRFTISRDNAKNTVYLQMNSLKPEDTAVYYCAAKTYQQQIVRPMYYWGQCTQVTVSS”, the “polyreactivity (PSR sort gate)” value was “high polyreactivity”.
With “QVQLVESGGGLVQAGGSLRLSCAASGSIFYSNAMGWYRQAPGKERELVAAITVGGGRTYYADSVKGRFTISRDNAKYTVYLQMNSLNPEDTAVYYCAADSHASTYDYWGQGTQVTVSS” the “polyreactivity (PSR sort gate)” value was “low polyreactivity”.
In the case of “QVQLVESGGGLVQAGGSLRLSCAASGSIFYSNAMGWYRQAPGKERELVADISWSDGSTYYADSVKGRFTISRDNAKNNVYLQMNSLKPEDTEVYYCARKAGYSYFRRYDYWGQGTQVTVSS”, the “polyreactivity (PSR sort gate)” value is reported as “low polyreactivity”.
With “QVQLVESGGGLVQAGGSLRLSCAASGSIFYSNKGWYRQAPGKEREFVAAISGSGVRTYYADSVKGRFTISRDNAKNTVYLQMNSLKPEDTAVYYCNAGRRQDYRYIYWGQGTQVTVSS” the “polyreactivity (PSR sort gate)” value was “high polyreactivity”.
With “QVQLVESGGGLVQAGGSLRLSCAASGSIFYSNTIGWYRQAPRKERELDAAITSGGGTNYADSVKGRFTISRDNAKNTVYLQMNSLKPEDTAVYYCAAVTKTLYRSYFLMYYWGQGTQVTVSS” the “polyreactivity (PSR sort gate)” value was “high polyreactivity”.
For “QVQLVESGGGLVQAGGSLRLSCAASGSIFYSNVMGWYRQAPGKERELVARITDAGSTNYADSVKGRFTISRDNAKNTVYLQMNSLKPEDTAVYYCNARLVIYTYDYWGQGTQVTVSS”, the “polyreactivity (PSR sort gate)” value was “low polyreactivity”.
In the case of “QVQLVESGGGLVQAGGSLRLSCAASGSIFYSNVMGWYRQAPGKERELVARITVAGSTNYADSVKGRFTISRDNAKNTVYLQMNSLKPEDTAVYYCNARLVIYTYDYWGQGTQVTVSS”, the “polyreactivity (PSR sort gate)” value is reported as “low polyreactivity”.
In the case of “QVQLVESGGGLVQAGGSLRLSCAASGSIFYSNVMGWYRQAPGKERELVASITNGGGTYYADSVKGRFTISRDNAKTTVYLQMNSLKPEDTAVYYCARRVYYWGQGTQVTVSS”, the “polyreactivity (PSR sort gate)” value is reported as “high polyreactivity”.
In the case of “QVQLVESGGGLVQAGGSLRLSCAASGSIFYSNVMGWYRQAPGQERELVARITDAGSTNYADSVKGRFTISRDNAKHTVYFQMNSLKPEDTAVYYCNARLVIYTFDYWGQGTLVTVSS”, the “polyreactivity (PSR sort gate)” value is reported as “low polyreactivity”.
For “QVQLVESGGGLVQAGGSLRLSCAASGSIFYSYAMAWYRQAPGKERELVAAITSGGSTYYADSVKGRFTISRDNAKNTVYLQMNTLKPEDTAVYYCAKRWPAYWGKGHGSWGQGTQVTVSS”, the “polyreactivity (PSR sort gate)” value was “high polyreactivity”.
For “QVQLVESGGGLVQAGGSLRLSCAASGSIFYSYAMGWYIQAHGKERELVARINYRGGSTYYADSVKGRFTISRDNAKNTVYLQMNSLKPEDTAVFYCAKRSYWSSNPRDYWGQGTKVTVSS”, the “polyreactivity (PSR sort gate)” value was “high polyreactivity”.
For “QVQLVESGGGLVQAGGSLRLSCAASGSIFYSYAMGWYRQAPGKERELVAAISRSGVSTYYADSVKGRFTISRDNAKNTVYLQMNSLKPEDTAVYYCASPYFVSYQGYDYWGQGTQVTVSS”, the “polyreactivity (PSR sort gate)” value was “high polyreactivity”.
In the case of “QVQLVESGGGLVQAGGSLRLSCAASGSIFYSYGMGWYRQAPGKERELVAAITSSGGGTYYADSVKGRFTISRDNAKNTVYLQMNSLKPEDTAVYYCAADDRNYNYYPTFYYWGQGTQVTVSS”, the “polyreactivity (PSR sort gate)” value is reported as “low polyreactivity”.
In the case of “QVQLVESGGGLVQAGGSLRLSCAASGSIFYSYVMGWYRQAPGKERELVAAISRNGQSTYYADSVKGRFTISRDNAKNTVYLQMNSLKPEDTAVYYCATRGTKSIKDVPGIRYGYWGQGTQVTVSS”, the “polyreactivity (PSR sort gate)” value is reported as “high polyreactivity”.
With “QVQLVESGGGLVQAGGSLRLSCAASGSIFYTYAMGWYRQAPGKERELVAGISWRGGSTYYADSVKGRYTISRDNAKNTVYLQMNSLNPEDTAVYYCAASYFWDRVPGRGIHDYWGQGTQVTVSS” the “polyreactivity (PSR sort gate)” value was “high polyreactivity”.
With “QVQLVESGGGLVQAGGSLRLSCAASGSIFYTYAMGWYRQAPGKERELVASITNDDSTNYADSVKGRFTISRDNAKKTVYLQMNSLKPEDTAVYYCADDSNWIYDIEYDYWGQGTQVTVSS” the “polyreactivity (PSR sort gate)” value was “low polyreactivity”.
In the case of “QVQLVESGGGLVQAGGSLRLSCAASGSIFYVNAMGWYRQAPGKERELVASITASGGTTYYADSVKGRFTISRDNAKNNVYLQMNSLKPEDTAVYYCAATFIQVVVNVQLYDYDYWGQGTQVTVSS”, the “polyreactivity (PSR sort gate)” value is reported as “low polyreactivity”.
For “QVQLVESGGGLVQAGGSLRLSCAASGSIFYVNDMGWYRQAPGKERELVAAISSTGSTKYADSVKGRFTISRDNAKNTVYLQMNSLKPEDTAVYYCAKEPGHRFEFDYWGQGTQVTVSS”, the “polyreactivity (PSR sort gate)” value was “low polyreactivity”.
With “QVQLVESGGGLVQAGGSLRLSCAASGSIFYVYAMGWYRQAPGKERELVAAINTSSGDTYYADSVKGRFTISRDNAKNTVYLQMNSLKPEDTAVYYCNARTRSSYTIGSYLLSYDYWGQGTQVTVSS” the “polyreactivity (PSR sort gate)” value was “high polyreactivity”.
With “QVQLVESGGGLVQAGGSLRLSCAASGSIFYVYAMGWYRQAPGKERELVAAITSSGTTNYADSVKGRFTISRDNAKNTVYLQMNSLKPEDTAVYYCAADAYSGAYFTYLGEIYDYWGQGTQVTVSS” the “polyreactivity (PSR sort gate)” value was “low polyreactivity”.
With “QVQLVESGGGLVQAGGSLRLSCAASGSIFYVYAMGWYRQAPGKERELVATISTGGSTYYADSVKGRFTISRDNAKNTVYLQMNSLKPEDTAVYYCNAQFTPRYRGGYDSWGQCTQVTVSS” the “polyreactivity (PSR sort gate)” value was “low polyreactivity”.
For “QVQLVESGGGLVQAGGSLRLSCAASGSIFYVYGMGWYRQAPGKERELVAAITRSGGIKYYADSVKGRFTISRDNAKNTVYLLMNSLKPEDTAVYYCAALSYRYTDKVVYWGQGTQVTVSS”, the “polyreactivity (PSR sort gate)” value was “low polyreactivity”.
In the case of “QVQLVESGGGLVQAGGSLRLSCAASGSIFYVYVMGWYRQAPGKERELVAAIDTGGGDTYYADSVKGRFTISRDNAKNTVYLQMNSLKPEDTAVYYCAAELYDYGDLYYSEYDYWGQGTQVTVSS”, the “polyreactivity (PSR sort gate)” value is reported as “low polyreactivity”.
With “QVQLVESGGGLVQAGGSLRLSCAASGSIFYVYVMGWYRQAPGKERELVAGISYRGGSTYYADSVKGRFTISRDNAKNTVYLQMNSLKPEDTAVYYCNAGVWTYWHIEMDYWGQGTQVTVSS” the “polyreactivity (PSR sort gate)” value was “low polyreactivity”.
For “QVQLVESGGGLVQAGGSLRLSCAASGSIFYWNTMGWYRQAPGKERELVAAISYSGGSTYYADSVKGRFTISRDNAKNTVYLQMNSLKPEDTAVYYCAAKYYNRFYYWGQGTQVTVSS”, the “polyreactivity (PSR sort gate)” value was “high polyreactivity”.
In the case of “QVQLVESGGGLVQAGGSLRLSCAASGSIFYWYAMGWYRPAPGKERELVAAITSSSGRTRYADSVKGRFTISRDNAKNTVYLQMNSLKPEDTAVYYCAAGRWGSYYTPRPYGYWGQGTQVTVSS”, the “polyreactivity (PSR sort gate)” value is reported as “high polyreactivity”.
With “QVQLVESGGGLVQAGGSLRLSCAASGSIFYWYAMGWYRQAPGKEREFVAAISRSDGSTYYADSLKRRFTISRDNAKNTVYLEMNRLKPEDTAVYYCAAERYYFPRSYRYGYWGQGTQVTVSS” the “polyreactivity (PSR sort gate)” value was “low polyreactivity”.
In the case of “QVQLVESGGGLVQAGGSLRLSCAASGSIFYWYAMGWYRQAPGKERELVAGITGRGGSTYYADSVKGRFTISRDNAKNTVYLQMNSLKPEDTAVYYCAARYTRWRYNYKDYDYWGQGTQVTVSS”, the “polyreactivity (PSR sort gate)” value is reported as “high polyreactivity”.
With “QVQLVESGGGLVQAGGSLRLSCAASGSIFYYNAKGWYRQAPGKERELVAGIRRSGDSTYYADSVKGRFTISRDNAKNTVYLQLNRLKPEDTAVYYCAADRVYEASQGYTYFDYDYWGQGTQVTVSS” the “polyreactivity (PSR sort gate)” value was “low polyreactivity”.
For “QVQLVESGGGLVQAGGSLRLSCAASGSIFYYNAMGWYRQAPGKERELVAAISRSGGSTYYADSVKGRFTISRDNAKNTVYLQMNSLKPEDTAVYYCAARPNFTPYEYGYWGQGTQVTVSS”, the “polyreactivity (PSR sort gate)” value was “low polyreactivity”.
With “QVQLVESGGGLVQAGGSLRLSCAASGSIFYYNAMGWYRQAPGKERELVAAISWGDGITYYADSVKGRFTISRDNAKNTVYLQMNSLKPEDTAVYYCAVDYYYLAFEYWGQGTQVTVSS” the “polyreactivity (PSR sort gate)” value was “high polyreactivity”.
In the case of “QVQLVESGGGLVQAGGSLRLSCAASGSIFYYNAMGWYRQAPGKERELVAAITSGGSTHYADSVKGRFTISRDNAKNTVYLQMNSLKPEDTAVYYCAADVWYKYHRSAIIVEFDYWGQGTQVTVSS”, the “polyreactivity (PSR sort gate)” value is reported as “low polyreactivity”.
With “QVQLVESGGGLVQAGGSLRLSCAASGSIFYYNGMGWYRHAPGKERELVASISRGGGTNYADSVKGRFTISRDNAKNTVYLQMNSLKPEDTAVYYCNARYPRSSPFGYWGLGTQVTVSS” the “polyreactivity (PSR sort gate)” value was “high polyreactivity”.
For “QVQLVESGGGLVQAGGSLRLSCAASGSIFYYNTMAWYRQAPGKERELVAAIRQRGTSTYYADSVKGRFTISRDNAKNTVYLLMISLKPEDTAVYYCAAVTRGQSAYSYDYWGQGTKVTVSS”, the “polyreactivity (PSR sort gate)” value was “high polyreactivity”.

Source: the nanobody polyreactivity screen of Harvey et al. (2022)
